“Also recorded” adds a separate entry of the source.
Assays:
NT3 = target: T1, NT3 (Homo sapiens, UniProt P20783); test: Mouse E17/18 trigeminal neuron survival assay, NT3; assay type: cell-based; conditions: saturating NT3; antibody up to 200 nM; 48 hours
T1 sequence (P20783 139-257): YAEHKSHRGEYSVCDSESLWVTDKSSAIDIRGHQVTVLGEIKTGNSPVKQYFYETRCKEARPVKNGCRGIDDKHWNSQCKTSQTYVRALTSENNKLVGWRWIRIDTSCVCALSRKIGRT
Protocol: The ability of antibody E3 to specifically block NGF activity was evaluated by measurement of the capacity of the antibody to inhibit survival of mouse E17/18 trigeminal neurons in vitro in the presence of saturating concentrations of NGF, the NGF-related neurotrophin NT3, or the NGF-unrelated neurotrophic factor, macrophage stimulating protein (MSP). The survival of mouse E17/18 trigeminal neurons is a sensitive assay to evaluate the NGF-blocking activity of anti-NGF antagonist antibodies because NGF is required to support survival of these neurons at higher concentrations than the level of NGF required to support survival of E13.5 TG neurons).
(§1) The survival assay was conducted as follows: time mated pregnant Swiss Webster female mice were euthanised by CO2 inhalation. The uterine horns were removed and the embryos (at embryonic day 17 or 18) were extracted and decapitated. The trigeminal and nodose ganglia were dissected and cleaned. The ganglia were then trypsinised, mechanically dissociated and plated at a density of 100-300 cells per well in defined, serum-free medium in 4-well plates (Greiner) coated with poly-L-ornithine and laminin.
E17/18 trigeminal neurons were grown either without added neurotrophic factors (negative control) or in the presence of saturating concentrations of human NGF (400 pM and 15 pM) (positive control); NT3 (400 pM); or MSP (600 pM). […]

BDNF = target: T2, BDNF (Homo sapiens, UniProt P23560); test: Mouse E17 nodose neuron survival assay, BDNF; assay type: cell-based; conditions: BDNF 400 pM; antibody up to 200 nM; 48 hours
T2 sequence (P23560 129-247): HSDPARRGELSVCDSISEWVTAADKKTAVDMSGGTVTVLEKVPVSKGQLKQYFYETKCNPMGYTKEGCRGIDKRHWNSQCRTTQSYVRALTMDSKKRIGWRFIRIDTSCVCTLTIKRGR
Protocol: (§2) The ability of antibody E3 to specifically block NGF activity was also evaluated by measurement of the capacity of the antibody to inhibit survival of mouse nodose E17 neurons in the presence of saturating concentrations of BDNF or NT4/5. Survival of nodose neurons is supported by BDNF or NT4/5; therefore, survival of these neurons is a sensitive assay to evaluate the BDNF or NT4/5-blocking ability of the anti-NGF antagonist antibody.
as §1
(§3) E17 nodose neurons were grown either in the absence of added neurotrophic factors (negative control), or with saturating concentrations of BDNF (400 pM) (positive control) or NT4/5 (400 pM) or NGF unrelated growth factor […]. High concentrations of neurotrophins were used, as the goal of this experiment was to test specificity of the antibodies. […]

LIF = LIF (Homo sapiens, UniProt P15018); test: Mouse E17 nodose neuron survival assay, LIF; assay type: cell-based; conditions: LIF 2.5 nM; antibody up to 200 nM; 48 hours
Sequence of LIF (P15018 23-202, species assumed): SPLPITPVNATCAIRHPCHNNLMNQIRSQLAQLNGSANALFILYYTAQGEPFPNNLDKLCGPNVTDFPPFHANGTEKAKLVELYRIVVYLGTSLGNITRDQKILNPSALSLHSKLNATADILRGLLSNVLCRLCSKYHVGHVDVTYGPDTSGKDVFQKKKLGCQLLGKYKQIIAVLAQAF
Protocol: as §2, §1, §3

[1] = system: post-surgical resting pain (paw incision); test: Post-surgical pain model, cumulative resting pain score; assay type: in vivo, rat

B1: E3: humanized, affinity matured anti-NGF antagonist antibody; variable regions SEQ ID NO:1 and 2; human IgG2a (A330P331 to S330S331), kappa (antibody, V domains shown)
VH: QVQLQESGPGLVKPSETLSLTCTVSGFSLIGYDLNWIRQPPGKGLEWIGIIWGDGTTDYNSAVKSRVTISKDTSKNQFSLKLSSVTAADTAVYYCARGGYWYATSYYFDYWGQGTLVTVS
VL: DIQMTQSPSSLSASVGDRVTITCRASQSISNNLNWYQQKPGKAPKLLIYYTSRFHSGVPSRFSGSGSGTDFTFTISSLQPEDIATYYCQQEHTLPYTFGQGTKLEIKRT
modifications: human IgG2a constant (A330S/P331S) and kappa constant missing
- survival of E17/18 trigeminal neurons promoted by NT3 (NT3): had no effect; also recorded: did not inhibit
- survival of E17 nodose neurons promoted by BDNF (BDNF): had no effect; also recorded: did not inhibit
- survival of E17 nodose neurons promoted by LIF (LIF): had no effect; also recorded: did not inhibit
- resting pain (cumulative pain score) ([1]; 0.5 mg/kg i.v. two hours after surgery, assessed 24 hours after surgery): effectively alleviated post-surgical pain; also recorded: reduced resting pain
- resting pain (cumulative pain score) ([1]; 0.02 to 1 mg/kg i.p. 15 hours pre-incision, 24 hours after surgery, vs saline): significantly reduced resting pain

Reference: US20080182978A1, “ANTI-NGF ANTIBODIES AND METHODS USING SAME” (RINAT NEUROSCIENCE CORP, priority 2002, published 2008)
